Data as given in article PMC10579538 (The Journal of Biological Chemistry, 2023).

Experiments:
actin = actin (UniProt P68135)
[1] = target: myosin-7a subfragment-1 (motor domain and the first IQ motif) (human); assay: mass photometry
[2] = target: full-length human myosin-7a heavy chain (isoform 1, long N-terminal isoform) (human, UniProt Q13402-1 1-2215); assay: single-molecule two-color TIRF co-migration on actin
Sequence of full-length human myosin-7a heavy chain (isoform 1, long N-terminal isoform) (Q13402 whole entry, canonical isoform): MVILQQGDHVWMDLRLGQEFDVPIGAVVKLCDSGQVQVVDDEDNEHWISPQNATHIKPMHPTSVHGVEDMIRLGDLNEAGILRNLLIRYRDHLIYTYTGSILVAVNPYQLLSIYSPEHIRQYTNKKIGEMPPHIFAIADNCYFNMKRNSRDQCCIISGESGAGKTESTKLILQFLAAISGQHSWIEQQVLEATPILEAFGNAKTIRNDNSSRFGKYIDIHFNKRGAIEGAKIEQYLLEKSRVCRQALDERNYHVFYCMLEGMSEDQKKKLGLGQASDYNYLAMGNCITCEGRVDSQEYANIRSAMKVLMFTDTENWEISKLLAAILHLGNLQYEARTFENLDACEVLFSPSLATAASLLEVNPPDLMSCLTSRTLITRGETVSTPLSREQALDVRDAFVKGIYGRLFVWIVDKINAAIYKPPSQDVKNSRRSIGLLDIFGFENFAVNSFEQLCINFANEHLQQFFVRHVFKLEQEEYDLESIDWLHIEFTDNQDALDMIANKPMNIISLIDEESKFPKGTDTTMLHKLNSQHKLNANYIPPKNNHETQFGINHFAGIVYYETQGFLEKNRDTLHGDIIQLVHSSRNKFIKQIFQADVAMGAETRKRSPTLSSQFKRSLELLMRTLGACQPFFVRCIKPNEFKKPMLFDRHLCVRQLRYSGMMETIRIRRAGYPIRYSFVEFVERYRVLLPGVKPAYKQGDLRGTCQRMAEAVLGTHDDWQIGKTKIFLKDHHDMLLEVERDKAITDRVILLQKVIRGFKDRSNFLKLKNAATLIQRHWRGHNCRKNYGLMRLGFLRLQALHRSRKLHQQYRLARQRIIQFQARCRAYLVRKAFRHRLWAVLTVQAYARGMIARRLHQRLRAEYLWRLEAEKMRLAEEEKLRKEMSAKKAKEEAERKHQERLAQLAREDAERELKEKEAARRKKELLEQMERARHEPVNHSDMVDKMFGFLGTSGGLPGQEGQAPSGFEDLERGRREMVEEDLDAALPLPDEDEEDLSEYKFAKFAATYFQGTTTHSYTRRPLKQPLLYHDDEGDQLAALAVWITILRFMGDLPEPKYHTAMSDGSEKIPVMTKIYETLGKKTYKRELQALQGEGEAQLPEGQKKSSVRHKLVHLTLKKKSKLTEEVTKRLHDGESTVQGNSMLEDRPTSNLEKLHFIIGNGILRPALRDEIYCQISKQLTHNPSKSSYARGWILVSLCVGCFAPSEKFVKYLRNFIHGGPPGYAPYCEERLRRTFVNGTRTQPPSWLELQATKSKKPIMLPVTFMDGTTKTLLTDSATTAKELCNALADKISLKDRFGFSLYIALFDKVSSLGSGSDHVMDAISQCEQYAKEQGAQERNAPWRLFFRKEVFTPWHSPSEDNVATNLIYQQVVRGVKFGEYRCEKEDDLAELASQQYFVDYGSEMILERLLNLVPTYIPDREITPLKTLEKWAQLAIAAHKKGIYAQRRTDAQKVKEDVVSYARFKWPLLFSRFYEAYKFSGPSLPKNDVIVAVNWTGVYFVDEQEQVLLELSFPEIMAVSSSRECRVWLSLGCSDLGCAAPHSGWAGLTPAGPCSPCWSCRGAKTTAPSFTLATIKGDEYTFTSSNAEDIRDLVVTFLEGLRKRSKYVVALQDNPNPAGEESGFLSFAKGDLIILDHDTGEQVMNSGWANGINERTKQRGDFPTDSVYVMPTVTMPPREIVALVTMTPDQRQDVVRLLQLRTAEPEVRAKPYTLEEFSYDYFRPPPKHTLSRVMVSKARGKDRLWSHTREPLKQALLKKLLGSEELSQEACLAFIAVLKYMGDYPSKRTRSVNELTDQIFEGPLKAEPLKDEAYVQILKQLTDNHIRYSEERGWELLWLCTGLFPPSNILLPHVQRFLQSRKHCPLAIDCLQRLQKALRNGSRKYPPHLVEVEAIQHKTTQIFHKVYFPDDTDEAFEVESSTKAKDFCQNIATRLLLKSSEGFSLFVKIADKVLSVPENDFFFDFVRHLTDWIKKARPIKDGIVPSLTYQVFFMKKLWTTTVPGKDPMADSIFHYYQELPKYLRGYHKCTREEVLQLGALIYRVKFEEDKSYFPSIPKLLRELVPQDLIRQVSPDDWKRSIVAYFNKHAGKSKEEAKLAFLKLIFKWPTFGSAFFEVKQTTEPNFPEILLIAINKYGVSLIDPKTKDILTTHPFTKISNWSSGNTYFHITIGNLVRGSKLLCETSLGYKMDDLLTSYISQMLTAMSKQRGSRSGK

“myosin-7a subfragment-1 (motor domain and the first IQ motif) (domain or fragment)” gave a K ATPase of the actin-activated steady-state ATPase (NADH-coupled assay) (actin) of 11 µM.

Molecule “regulatory light chain (from UniProt O14950 1-172) (natural protein)” has a stoichiometry N [1] of 1.

B1: mCherry-tagged MyRIP (myosin and Rab interacting protein) (natural protein, UniProt Q8NFW9-1 1-859, looked up)
chain: MGRKLDLSGLTDDETEHVLQVVQRDFNLRKKEEERLSELKQKLDEEGSKCSILSKHQQFVEHCCMRCCSPFTFLVNTKRQCGDCKFNVCKSCCSYQKHEKAWVCCVCQQARLLRAQSLEWFYNNVKSRFKRFGSAKVLKNLYRKHRLESGACFDILGGSLFESNLENEGSISGSDSTFYRQSEGHSVMDTLAVALRVAEEAIEEAISKAEAYGDSLDKQNEASYLRDHKEELTEELATTILQKIIRKQKSKSEQQVEEEPGWPHPQSCSTKVADEGTSASPGGYRAPAALWRSQSAFSITGEEALKTPPVEAPSRQPRDQGQHPRAESALPSWKSVDRLDETNLAPVLQSPDGNWVALKDGAPPPTRLLAKPKSGTFQALEVASSVASAYDEMGSDSEEDFDWSEALSKLCPRSRALPRNPQPQPTQAQSSDQGPIAASPSSALSPNPEAMCSDSETSSAGSSREVGHQARLSWLQRKAPRNPAAEKMRLHGELDVNFNPQLASRETSDSSEPEEAPHTTDRRARRWRRARLGSEEPSKEPSSPSAQLRDLDTHQVSDDLSETDISNEARDPQTLTDTTEEKRRNRLYELAMKMSEKETSSGEDQESEPKTESENQKESLSSEDNSQSVQEELKKKFSAVSLCNISTEVLKVINATEELIAGSTGPWESPQVPPDRQKGMFPRGTDQVRLDEQLTSLEENVYLAAGTVYGLETQLTELEDAARCIHSGTDETHLADLEDQVATAAAQVHHAELQISDIESRISALTIAGLNIAPCVRFTRRRDQKQRTQVQTIDTSRQQRRKLPAPPVKAEKIETSSVTTIKTFNHNFILQGSSTNRTKERKGTTKDLMEPALESAVMY
B1: binds [2].
